The target in test [1] is T1, human 4-1BB on cells (human, UniProt Q07011 24-255). Description: cell-based or functional assay.
The target in test [2] is T2, 4-1BB (CD137), antigen of the Octet kinetics (UniProt Q07011 24-186, limits assumed).
T2 construct: also called TNFRSF9
As to the kind of experiment: Octet (BLI), mono-valent binding kinetics. Background: Biolayer interferometry detects binding as a change in optical thickness at a sensor tip.

Test [3] has as its target T1, human 4-1BB on cells. As to the kind of experiment: cell-based or functional assay. This is another data set of the same source.
The target in test [4] is T1, human 4-1BB on cells. Description: flow cytometry, HEK293 cells over-expressing human 4-1BB. Here is the method:
(§1) Human/Cyno/Mouse 4-1BB transfected HEK293 cells or PHA-P stimulated PBMCs were incubated with serial diluted anti-4-1BB antibodies in FACS buffer (DPBS+ 2% FBS+ 0.05% sodium azide) followed by AF647-labeled F(ab′)2 goat anti-human IgG and 7-AAD. In addition, PBMCs were incubated with FITC Mouse anti-human CD3. Stained 4-1BB expressing HEK293 samples were analyzed using FlowJo by gating on FSC/SSC, followed by live/dead cell gating, and human/Cynomolgous/Mouse 4-1BB+ cells (MFI Geo Mean denoted). Stained Lymphocyte samples were analyzed using FlowJo by gating on FSC/SSC, followed by live/dead cell gating, and CD3+ cells with 4-1BB positives. (Table 2 and Table 3)

In test [5] the target is T3, mouse 4-1BB on HEK293 cells (mouse, UniProt P20334 24-256).
T3 construct: whole, on cells; also called Mouse 4-1BB transfected HEK293 cells
T3 sequence (looked up): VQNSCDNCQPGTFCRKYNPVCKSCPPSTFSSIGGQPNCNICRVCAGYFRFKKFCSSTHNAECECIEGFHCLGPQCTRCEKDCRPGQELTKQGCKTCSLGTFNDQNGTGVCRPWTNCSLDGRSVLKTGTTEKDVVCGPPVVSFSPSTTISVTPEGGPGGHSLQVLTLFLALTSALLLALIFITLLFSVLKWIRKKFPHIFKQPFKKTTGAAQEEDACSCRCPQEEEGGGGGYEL
As to the kind of experiment: flow cytometry, mouse 4-1BB transfected HEK293 cells. Here is the method: as §1
(In flow cytometry, cells or beads pass a laser one at a time.)

Test [6] deals with T4, cyno 4-1BB on HEK293 cells (cyno, UniProt A9YYE7 24-254).
T4 construct: whole, on cells; also called Cynomolgous 4-1BB; HEK293 cells over-expressing cyno 4-1BB
As to the kind of experiment: flow cytometry, HEK293 cells over-expressing cyno 4-1BB. Here is the method:
as §1

Test [7] addresses T1, human 4-1BB on cells. Description: flow cytometry, activated (PHA-P stimulated) human T cells. Here is the method: as §1

For orientation: Kd means a measure of binding affinity in units of concentration. For orientation: koff means the first-order rate constant of dissociation. Broadly, the kon is the rate constant with which the complex forms. A higher kon goes with fast association. A word on the EC50: it is the concentration at which the effect is half-maximal. Read a high EC50 as weaker potency.

T1 sequence (Q07011 24-255): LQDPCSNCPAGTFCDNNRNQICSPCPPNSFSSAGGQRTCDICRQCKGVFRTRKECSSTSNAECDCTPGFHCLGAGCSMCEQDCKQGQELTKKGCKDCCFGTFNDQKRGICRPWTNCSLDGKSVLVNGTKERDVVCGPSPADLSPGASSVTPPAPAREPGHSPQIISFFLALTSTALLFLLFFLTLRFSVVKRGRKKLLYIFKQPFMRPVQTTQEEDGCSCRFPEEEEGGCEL
T4 sequence (A9YYE7 entry or part of it): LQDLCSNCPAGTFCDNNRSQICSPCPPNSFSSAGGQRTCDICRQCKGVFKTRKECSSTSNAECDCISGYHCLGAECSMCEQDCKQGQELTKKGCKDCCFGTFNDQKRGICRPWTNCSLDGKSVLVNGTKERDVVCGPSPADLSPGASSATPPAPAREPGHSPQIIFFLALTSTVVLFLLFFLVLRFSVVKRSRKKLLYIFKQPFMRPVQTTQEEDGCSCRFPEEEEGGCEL

B1: huG28.21.G2.1.4 (antibody, human IgG2, kappa, V domains shown)
VH: EVQLVQSGAEVKKPGATVKISCKASGFNIKDYYIHWVNQAPGKGLEWIGRIDPEDGDIAYAPKFQDRVTLTVDTSTDTAYLELSSLRSEDTAVYYCTTGNYYAMDFWGQGTTVTVSS
VL: QIVLTQSPATLSASPGERVTLSCTASSSVSSSYLHWYQQKPGSSPKLWIYSTSNLASGVPARFSGSGPGTSYTLTISSMEPEDAATYYCHQYHRSPPTFGQGTKLEIKR
notes: also called huG28.21.1.4
As for B1, in test [1], the “NF-KB reporter activation, curve fit Bottom” value turned out to be 625 RLU and the “NF-KB reporter activation, curve fit Top” value was found to be 4170 RLU. In addition, in test [2], the Kd turned out to be 15.3 nM, the Response worked out at 0.181, the “T1/2 Life” value was 1.8 min and the off-rate (koff) stood at 0.00652 s⁻¹. For the same molecule, the association rate constant (kon) in test [2] is 426000 M⁻¹ s⁻¹.

B2: huG28.21.G2.4.4 (antibody, human IgG2, kappa, V domains shown)
VH: EVQLQQSGAEVKKPGATVKLSCKASGFNIKDYYIHWVNQRPGQGLEWIGRIDPEDGDIAYAPKFQDRATLTVDTSTNTAYLELSSLRSEDTAVYYCTTGNYYAMDFWGQGTTVTVSS
VL: QIVLTQSPATLSASPGERVTLSCTASSSVSSSYLHWYQQKPGSSPKLWIYSTSNLASGVPARFSGSGPGTSYTLTISSMEPEDAATYYCHQYHRSPPTFGQGTKLEIKR
notes: also called huG28.21.4.4
As for B2, in test [1], the “NF-KB reporter activation, curve fit Bottom” value turned out to be 592 RLU and the “NF-KB reporter activation, curve fit Top” value amounted to 3920 RLU. Also, in test [2], binding was put at a Kd of 10.4 nM, the Response stood at 0.175, the “T1/2 Life” value amounted to 2.5 min and the koff came to 0.00467 s⁻¹. The kon in test [2] is 449000 M⁻¹ s⁻¹.

B3: G28.21 (antibody, V domains shown)
VH: EVQLQQSGAELVRPGASVKLSCTASGFNIKDYYIHWVNQRPEQGLEWIGRIDPEDGDIAYAPKFQDKATLTVDTSSNTAYLHIIGLTSEDTAVYYCTTGNYYAMDFWGQGTSVTVSS
VL: QIVLTQSPAIMSASLGERVTMTCTASSSVSSSYLHWYQQKPGSSPKLWIYSTSNLASGVPARFSGSGSGTSYSLTISSMEAEDAATYYCHQYHRSPPTFGSGTKLEIK
notes: also called anti-4-1BB mAb G28.21
On to B3, for which, in test [3], the “NF-kB Stimulation (EC50)” value was 0.018 µg/mL. Also, the EC50 in test [4] amounted to 0.121 µg/mL; in test [6], 0.162 µg/mL; in test [7], 0.08 µg/mL. The binding result in test [5] is given as “no binding”.

B4: cAB 137QL.G28.21.G2 (antibody, human IgG2, V domains shown)
VH: EVQLQQSGAELVRPGASVKLSCTASGFNIKDYYIHWVNQRPEQGLEWIGRIDPEDGDIAYAPKFQDKATLTVDTSSNTAYLHIIGLTSEDTAVYYCTTGNYYAMDFWGQGTSVTVSS
VL: QIVLTQSPAIMSASLGERVTMTCTASSSVSSSYLHWYQQKPGSSPKLWIYSTSNLASGVPARFSGSGSGTSYSLTISSMEAEDAATYYCHQYHRSPPTFGSGTKLEIK
notes: Chimeric antibody; also called Chimeric G28.21; cAb G28.21.G2
Turning to B4, in test [1], the “NF-KB reporter activation, curve fit Bottom” value was 879 RLU and the “NF-KB reporter activation, curve fit Top” value worked out at 4590 RLU. In test [2], the Kd was found to be 14 nM, the Response is 0.204, the “T1/2 Life” value came to 2.2 min and the koff was 0.00523 s⁻¹. This molecule registered a kon in test [2] of 373000 M⁻¹ s⁻¹.

B5: F1.1 (antibody, V domains shown)
VH: QVQLQQSGAELARPGASVKMSCKASGYTFTFYTMHWLKQRPGQGLEWIGYINPSSGYTNYNQKFTDKATLTADKSSSTAYMQLSSLTSEDSAVYYCARSDGSSSKWYFDVWGTGTTVTVSS
VL: QIVLSQSPTILSASPGEKVTMTCRASSSVSYIHWYQQKPGSSPKAWISATSNLASGVPARFSGSGSGTSYSLTISRVEAEDAATYYCQQWSSNPFTFGSGTKLEIK
notes: The flow method detects with anti-human IgG; also called anti-4-1BB mAb F1.1
B5: the “NF-kB Stimulation (EC50)” value in test [3] amounted to 0.026 µg/mL. The figures for the EC50 in test [4], in test [6] and in test [7] were 0.341 µg/mL, 0.392 µg/mL and 0.233 µg/mL, respectively. The binding result in test [5] is “no binding”.

B6: cAb 137QL.F1.1.G2 (antibody, human IgG2, V domains shown)
VH: QVQLQQSGAELARPGASVKMSCKASGYTFTFYTMHWLKQRPGQGLEWIGYINPSSGYTNYNQKFTDKATLTADKSSSTAYMQLSSLTSEDSAVYYCARSDGSSSKWYFDVWGTGTTVTVSS
VL: QIVLSQSPTILSASPGEKVTMTCRASSSVSYIHWYQQKPGSSPKAWISATSNLASGVPARFSGSGSGTSYSLTISRVEAEDAATYYCQQWSSNPFTFGSGTKLEIK
notes: Chimeric antibody; also called Chimeric F1.1; cAb F1.1.G2
As to B6, in test [1], the “NF-KB reporter activation, curve fit Bottom” value was 894 RLU and the “NF-KB reporter activation, curve fit Top” value came to 6730 RLU. In test [2], the dissociation constant Kd amounted to 41.9 nM, the Response turned out to be 0.138, the “T1/2 Life” value came out at 2 min and the off-rate (koff) turned out to be 0.00578 s⁻¹. The association rate constant (kon) in test [2] turned out to be 138000 M⁻¹ s⁻¹.

B7: huF1.1.G2.2.4 (antibody, human IgG2, kappa, V domains shown)
VH: QVQLVQSGAEVKKPGASVKVSCKASGYTFTFYTMHWLRQAPGQGLEWIGYINPSSGYTNYNQKFTDRATLTADTSTSTAYMELSSLRSEDTAVYYCARSDGSSSKWYFDVWGQGTTVTVSS
VL: EIVLTQSPDFQSATPKEKVTITCRASSSVSYIHWYQQKPGSSPKAWISATSNLASGVPSRFSGSGSGTSYTLTINRVEAEDAATYYCQQWSSNPFTFGQGTKLEIKR
notes: also called huF1.1.2.4
Consider B7, for which, in test [1], the “NF-KB reporter activation, curve fit Bottom” value stood at 838 RLU and the “NF-KB reporter activation, curve fit Top” value worked out at 7190 RLU. In test [2], binding was characterised by a dissociation constant (Kd) of 40.6 nM, the Response turned out to be 0.12, the “T1/2 Life” value came out at 2.1 min and the koff was determined as 0.00559 s⁻¹. In addition, in test [2], the kon was found to be 138000 M⁻¹ s⁻¹.

B8: huF1.1.G2.4.4 (antibody, human IgG2, kappa, V domains shown)
VH: QVQLVQSGAEVKKPGASVKMSCKASGYTFTFYTMHWLKQAPGQGLEWIGYINPSSGYTNYNQKFTDRATLTADKSTSTAYMELSSLRSEDTAVYYCARSDGSSSKWYFDVWGQGTTVTVSS
VL: EIVLTQSPDFQSATPKEKVTITCRASSSVSYIHWYQQKPGSSPKAWISATSNLASGVPSRFSGSGSGTSYTLTINRVEAEDAATYYCQQWSSNPFTFGQGTKLEIKR
notes: also called huF1.1.4.4
For the molecule B8, in test [1], the “NF-KB reporter activation, curve fit Bottom” value came to 666 RLU and the “NF-KB reporter activation, curve fit Top” value amounted to 5940 RLU. Also, in test [2], the affinity, expressed as Kd, was 40.4 nM; the Response was 0.137; the “T1/2 Life” value worked out at 1.9 min; the koff was 0.00618 s⁻¹. The kon in test [2] was 153000 M⁻¹ s⁻¹.

For the origin of these results see patent US20220064314A1 (QLSF BIOTHERAPEUTICS, published 2022).
